Results reported in patent publication US11491212.

B1: FIXa-Y155F/R318Y/R338E/R403E (mature FIX numbering) (protein)
chain 1: not shown
chain 2: not shown
B2: FIXa-D203N/F205T/E410N (mature FIX numbering) (protein)
chain 1: not shown
chain 2: not shown
B3: FIXa-D203N/F205T/R318Y (mature FIX numbering) (protein)
chain 1: not shown
chain 2: not shown
B4: FIXa-D203N/F205T/R338A (mature FIX numbering) (protein)
chain 1: not shown
chain 2: not shown
B5: FIXa-K228N/R318Y/R338E/R403E/E410N (protein)
chain 1: not shown
chain 2: not shown
B6: FIXa-D203N/F205T/K228N (mature FIX numbering) (protein)
chain 1: not shown
chain 2: not shown
B7: FIXa-D203N/F205T/R338E/R403E (mature FIX numbering) (protein)
chain 1: not shown
chain 2: not shown
B8: FIXa-I251S/R318Y/R338E/R403E/E410N (protein)
chain 1: not shown
chain 2: not shown
B9: FIXa-Y155F/I251S/R318Y/R338E/R403E/E410N (protein)
chain 1: not shown
chain 2: not shown
B10: FIXa-D203N/F205T/R338E (mature FIX numbering) (protein)
chain 1: not shown
chain 2: not shown
B11: FIXa-D104N/K106S/I251S/R318Y/R338E/R403E/E410N (protein)
chain 1: not shown
chain 2: not shown
B12: FIXa-Y155F/R338E/R403E/E410N (mature FIX numbering) (protein)
chain 1: not shown
chain 2: not shown
B13: FIXa-R318Y/R338E/R403E (mature FIX numbering) (protein)
chain 1: not shown
chain 2: not shown
B14: FIXa-D85N/K228N/R318Y/R338E/R403E/E410N (protein)
chain 1: not shown
chain 2: not shown

Molecular target: Factor X (FX), P00742
Sequence (P00742 whole entry, looked up): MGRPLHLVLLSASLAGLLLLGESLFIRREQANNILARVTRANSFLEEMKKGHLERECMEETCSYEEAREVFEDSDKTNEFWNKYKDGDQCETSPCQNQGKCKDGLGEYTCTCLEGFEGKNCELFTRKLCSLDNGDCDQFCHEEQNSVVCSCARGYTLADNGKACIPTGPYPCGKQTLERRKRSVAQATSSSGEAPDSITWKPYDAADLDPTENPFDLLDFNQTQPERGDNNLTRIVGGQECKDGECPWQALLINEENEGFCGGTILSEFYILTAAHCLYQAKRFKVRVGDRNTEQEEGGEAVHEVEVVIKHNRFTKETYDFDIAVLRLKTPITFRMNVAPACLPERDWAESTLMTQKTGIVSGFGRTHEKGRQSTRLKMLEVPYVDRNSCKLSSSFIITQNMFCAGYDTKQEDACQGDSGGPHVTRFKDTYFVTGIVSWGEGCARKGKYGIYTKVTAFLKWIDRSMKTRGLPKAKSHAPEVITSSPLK

Protein | % of WT kcat/KM [%] | % of WT kcat/KM (against Catalyst Biosciences WT FIXa) [%] | kcat/KM for activation of FX by FIXa in the Xase complex (FVIIIa, PC/PS vesicles, Ca2+), fluorogenic Spectrafluor FXa read-out [M⁻¹ s⁻¹] | kcat/KM [M⁻¹ s⁻¹]
B1 | 189 | – | – | –
B2 | 91 | – | – | –
B3 | 44 | – | – | –
B4 | 135 | – | – | –
B5 | – | 339 | 1.6e+08 | –
B6 | 30 | – | – | –
B7 | 41 | – | – | –
B8 | – | 334 | 1.5e+08 | –
B9 | – | 363 | 1.7e+08 | –
B10 | 228 | – | – | –
B11 | – | 263 | 1.2e+08 | –
B12 | 401 | – | – | 1.8e+08
B13 | 134 | – | – | –
B14 | – | 336 | 1.6e+08 | –
